Target: ribosome (40S ribosomal subunit) of RACK1-downregulated HeLa cells
Assay: in vitro ribosome interaction assay (iRIA)
Conditions: parent: est. 1.1; read off a plot

MBP-RACK1, wild type (from UniProt P63244) R36D; K38E
response: 0.47 Abs450

Reference: PMC6234289
